# From US20210139545A1 (IBA, published 2021)
# B1: mutein m1-9 (designed binder)
# chain: EAGITGTWYNQLGSTFIVTAGADGALTGTYVTARGNAESRYVLTGRYDSAPATDGSGTALGWTVAWKNNYRNAHSATTWSGQYVGGAEARINTQWLLTSGTTEENAGYSTLVGHDTFTKVKPSAAS
# Assays:
# [1] = target: T1, E. coli alkaline phosphatase Strep-tag®II fusion protein (E. coli, UniProt P00634 22-471 = phosphatase); assay: ELISA, second experiment, mutein coated, BAP-StrepII titrated
# T1 construct: mature; also called BAP-StrepII; BAP-StrepIII
# [2] = target: T2, Green Fluorescent Protein with C-terminal Strep-tagII (Aequorea victoria (Water jellyfish) …, UniProt P42212 1-237 = GFP, limits assumed); assay: SPR Biacore T100, mutein immobilised at 4350 RU, 1:1 global fit
# T2 construct: also called GFP-StrepII; GFP-StrepIII
# Method: (§1) To achieve the immobilization at higher density, mutein m1-9 was used at a concentration of 20 μg/ml and mutein “1” was used at a concentration of 50 μg/ml. […] Prior to analysis, the fusion protein preparations were dialyzed against Buffer W (100 mM Tris-CI pH8, 150 mM NaCl, 1 mM EDTA), and checked via analytical size exclusion chromatography to be essentially free of aggregates (a content of max. 5% was accepted, in most cases it was below 1%) to ensure to measure the interaction of monovalent fusion proteins with immobilized streptavidin muteins only. […] Data were fitted using the kinetic global fit (Langmuir 1:1) and resulting on- and off-rates and deduced dissociation constants are shown in column 4, column 5 and column 6, respectively. BiaCore data were measured by Biaffin GmbH & Co KG, Kassel, Germany.
# [3] = target: T3, cytochrome b562 with C-terminally fused Strep-tagII (E. coli); assay: as above
# T3 construct: also called Cytb562-StrepII; Cytb562-StrepIII
# Method: as §1
# [4] = target: T4, cytochrome b562 with C-terminal di-tag3 (E. coli); assay: as above
# T4 construct: also called Cytb562-di-tag3
# Method: as §1
# [5] = target: T5, Green Fluorescent Protein with C-terminal di-tag3; assay: as above
# T5 construct: also called GFP-di-tag3
# Method: as §1
# [6] = target: T2, Green Fluorescent Protein with …; assay: SPR Biacore T100, mutein immobilised at 170 RU, 1:1 global fit
# Method: as §1
# [7] = target: T3, cytochrome b562 with C-terminally fused …; assay: as above
# Method: as §1
# [8] = target: T4, cytochrome b562 with C-terminal di-tag3; assay: as above
# Method: as §1
# [9] = target: T5, Green Fluorescent Protein with …; assay: as above
# Method: as §1
# [10] = target: T2, Green Fluorescent Protein with …; assay: SPR Biacore
# Method: (§2) The resulting relative immobilized amounts are given in RU (arbitrary units) (column 3). To achieve the low density immobilization both muteins were applied applied at a concentration of 1 μg/ml and a flow rate of 10 μl/min. To achieve the immobilization at higher density, mutein m1-9 was used at a concentration of 20 μg/ml and mutein “1” was used at a concentration of 50 μg/ml. […] Prior to analysis, the fusion protein preparations were dialyzed against Buffer W (100 mM Tris-CI pH8, 150 mM NaCl, 1 mM EDTA), and checked via analytical size exclusion chromatography to be essentially free of aggregates (a content of max. 5% was accepted, in most cases it was below 1%) to ensure to measure the interaction of monovalent fusion proteins with immobilized streptavidin muteins only.
# [11] = target: T3, cytochrome b562 with C-terminally fused …; assay: SPR Biacore
# Method: as §2
binder,measurement,setting,value
B1,(Δ(A405-A595)/Δt)max,[1],1700 mOD
same,Kd,[1],25 nM
same,Kd,[2],23 nM
same,koff,[2],0.0038 s⁻¹
same,kon,[2],170000 M⁻¹ s⁻¹
same,Kd,[3],485 nM
same,koff,[3],0.025 s⁻¹
same,kon,[3],52000 M⁻¹ s⁻¹
same,Kd,[4],0.043 nM
same,koff,[4],1.9e-05 s⁻¹
same,kon,[4],440000 M⁻¹ s⁻¹
same,Kd,[5],0.079 nM
same,koff,[5],1.7e-05 s⁻¹
same,kon,[5],220000 M⁻¹ s⁻¹
same,Kd,[6],32 nM
same,koff,[6],0.0047 s⁻¹
same,kon,[6],150000 M⁻¹ s⁻¹
same,Kd,[7],586 nM
same,koff,[7],0.041 s⁻¹
same,kon,[7],70000 M⁻¹ s⁻¹
same,Kd,[8],0.014 nM
same,koff,[8],1.5e-05 s⁻¹
same,kon,[8],1e+06 M⁻¹ s⁻¹
same,Kd,[9],0.053 nM
same,koff,[9],1.5e-05 s⁻¹
same,kon,[9],280000 M⁻¹ s⁻¹
same,affinity increase relative to mutein “1”,[10],~10 fold
same,affinity increase relative to mutein “1”,[11],~30 fold
